Assay results published in patent publication US20210332115A1 (Sanofi, published 2021).
“And” between values parts separate entries of the source, which are not always exact repeats. Equal entries are not always repeated.

Tests used:
[1] = biological target: T1, Homo sapiens factor Bb protein (human, UniProt P00751 260-764); assay: competition ELISA on coated factor Bb; competitor murine parental antibody
T1 construct: Bought from CompTech (A155); also called complement factor Bb; human factor Bb
T1 sequence (P00751 260-764 limits assumed): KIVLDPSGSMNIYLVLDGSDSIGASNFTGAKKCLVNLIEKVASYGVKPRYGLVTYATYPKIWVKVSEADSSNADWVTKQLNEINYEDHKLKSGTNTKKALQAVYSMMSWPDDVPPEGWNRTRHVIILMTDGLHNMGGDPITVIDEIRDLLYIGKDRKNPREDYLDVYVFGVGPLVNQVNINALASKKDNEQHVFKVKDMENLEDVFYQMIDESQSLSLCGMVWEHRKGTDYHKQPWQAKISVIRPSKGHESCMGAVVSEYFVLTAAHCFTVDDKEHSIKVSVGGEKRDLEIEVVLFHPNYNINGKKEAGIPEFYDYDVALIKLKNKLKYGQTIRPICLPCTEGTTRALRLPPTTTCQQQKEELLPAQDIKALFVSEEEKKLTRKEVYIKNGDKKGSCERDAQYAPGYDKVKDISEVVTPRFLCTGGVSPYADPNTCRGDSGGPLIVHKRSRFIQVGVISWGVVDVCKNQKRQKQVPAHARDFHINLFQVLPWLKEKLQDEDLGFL
Protocol: Factor Bb was diluted in 1× PBS to 1.0 μg/ml and 100 μl/well was coated overnight at 4° C. on a 96-well ELISA plate. The following day the plates were blocked for two hours at room temperature with 1% casein/PBS before washing 2× with PBS pH 7.4. In a 96-well dilution plate a fixed concentration of murine parental antibody (0.5 μg/ml, final concentration) was added in equal volume to a four-fold titration series of test antibody (starting from 45 μg/ml to 0.01 μg/ml, final concentration) diluted in blocking buffer. After washing the plate 3× with PBS-T, 100 μl of chimeric/test antibody mix was added to the ELISA plate. After incubating at room temperature for one hour, the plate was washed 3× with PBS-T and 100 μl of anti-mouse IgG Fc-Specific HRP (Sigma, Dorset, UK) diluted 1:1000 in PBS-T was applied for one hour at room temperature to detect bound mouse antibody. For color development, the plate was washed 3× with PBS-T following which 100 μl of TMB substrate was added and incubated for approximately five minutes at room temperature. The reaction was stopped with 50 μl of 3.0 M hydrochloric acid and absorbance was read immediately using a DYNEX ® plate reader at 450 nm.
IC50 values were calculated for each variant and relative IC50 values were calculated by dividing the IC50 of the humanized variant by that of the chimeric antibody assayed on the same plate (Table 11).

[2] = biological target: T1, Homo sapiens factor Bb protein; assay: SPR multi-cycle kinetics, IgG on Protein A chip, factor Bb analyte
Protocol: Antibodies were diluted in running buffer to a final concentration of 0.5 μg/ml. At the start of each cycle, antibodies were loaded onto Fc2, Fc3 and Fc4 of the Protein A chip (GE Healthcare, Little Chalfont, UK). IgGs were captured at a flow rate of 10 μl/min to give an immobilisation level (RL) of ˜63 RU, the theoretical value to obtain an Rmax of ˜50 RU. The surface was then allowed to stabilize. Kinetic data was obtained with factor Bb as analyte and using a flow rate of 30 μl/min to minimize any potential mass transfer effects. Multiple repeats of a blank and a repeat of a single concentration of the analyte were programmed into the kinetic run in order to check the stability of both the surface and analyte over the kinetic cycles. For kinetic analysis, a two-fold dilution range was selected from 12. 5 nM to 0. 391 nM factor Bb. The association phase of factor Bb was monitored for 360 seconds and the dissociation phase was monitored for 600 seconds. Regeneration of the Protein A surface was conducted using two injections of 10 mM glycine-HCL pH 1. 5. The signal from the reference channel Fc1 was subtracted from that of Fc2, Fc3 and Fc4 to correct for differences in non-specific binding to a reference surface, and a global Rmax parameter was used in the 1-to-1 binding model.
The sensorgrams and fitted data for the binding of chimeric antibodies and humanized variants to factor Bb are shown in FIGS. 4A-4C. The relative KD was calculated by dividing the KD of the humanized variants by that of the chimeric antibody on the same chip. The kinetic parameters measured for the interaction of factor Bb with chimeric antibodies and humanized variants are shown in Table 10.

[3] = biological target: T1, Homo sapiens factor Bb protein; assay: SPR single cycle kinetics, IgG on Protein A chip, factor Bb analyte
Protocol: In order to assess the binding of all humanized variants, single cycle kinetic analysis was performed on supernatants from transfected cell cultures. […] All single cycle kinetic experiments were run at 25° C. with HBS-P+running buffer (pH 7. 4) (GE Healthcare, Little Chalfont, UK).
Antibodies were diluted in running buffer to a final concentration of 1 μg/ml, based on concentrations assessed by ELISA titer. At the start of each cycle, antibodies were loaded onto Fc2, Fc3 and Fc4 of the Protein A chip (GE Healthcare, Little Chalfont, UK). IgGs were captured at a flow rate of 10 μl/min to give an immobilization level (RL) of ˜63 RU, the theoretical value to obtain an Rmax of ˜50 RU. The surface was then allowed to stabilize. Single cycle kinetic data was obtained with factor Bb (CompTech, Tyler, USA) as the analyte at a flow rate of 30 μl/min to minimize any potential mass transport limitations. Multiple repeats with the reference chimeric antibody were performed to check the stability of the surface and analyte over the kinetic cycles. The signal from the reference channel Fc1 (no antibody) was subtracted from that of Fc2, Fc3 and Fc4 to correct for differences in non-specific binding to a reference surface. A four point, two-fold dilution range from 0. 78 nM to 6. 25 nM factor Bb without regeneration between each concentration was used. The association phase for the four injections of increasing concentrations of factor Bb was monitored for 200 seconds each time and a single dissociation phase was measured for 200 seconds following the last injection of factor Bb. Regeneration of the Protein A surface was conducted using two injections of 10 mM glycine-HCL pH 1. 5.
Single cycle kinetics using cell culture supernatants were performed as described above.

[4] = biological target: T1, Homo sapiens factor Bb protein; assay: BLI Octet, biotinylated antibody on SA biosensors
Protocol: Briefly, biotinylated antibodies were loaded onto SA Biosensors equilibrated in PBS, 0.1% BSA, 0.02% Tween-20 (assay buffer). After a 60 second baseline in assay buffer, antibodies were loaded onto the probes for 180 seconds, followed by another 60 second baseline. Association to human (Comptech) or cynomolgus monkey factor Bb (purified in-house) was measured for 300 seconds, followed by a 300 second dissociation. Kinetic parameters were calculated by the Octet Analysis software using a 1:1 binding model.

[5] = biological target: T1, Homo sapiens factor Bb protein; assay: BLI, multi-cycle kinetics, antibody loaded on anti-hIgG Fc sensors, human factor Bb in solution (100 nM to 0.14 nM), 1:1 fit
Protocol: Multicycle kinetic analysis was performed on CHO and HEK-produced VH6/VK7-IgG4v2 antibodies using biolayer interferometry. Antibodies were diluted to 10 μg/mL in PBS+ 0.02%. Tween20, 0.1% BSA, 0.05% sodium azide and loaded onto anti-hIgG Fc sensors (pre-equilibrated in the same buffer) for 90 seconds followed by a 60-minute baseline in buffer. Binding of a concentration series of human factor Bb (Complement Technologies, #A155), ranging from 100 nM to 0.14 nM in 2-fold dilutions, was measured in a 300 second association in the same buffer, followed by a 300 second dissociation step.

| IC50 [1] | Kd [2] | koff [2] | kon [2] | Kd [3] | koff [3] | kon [3] | Kd [4] | Kd [5] | Binder |
| --- | --- | --- | --- | --- | --- | --- | --- | --- | --- |
| 1.23 nM | 1.99 nM and 1.91 nM and 1.9 nM | 0.000969 s⁻¹ and 0.000954 s⁻¹ and 0.00094 s⁻¹ | 487000 M⁻¹ s⁻¹ and 500000 M⁻¹ s⁻¹ and 495000 M⁻¹ s⁻¹ | 1.77 nM | 0.000949 s⁻¹ | 535000 M⁻¹ s⁻¹ | 2 nM | – | VH0/Vκ0 (Chimeric) (antibody, V domains shown, also called chimeric antibody) VH: EVQLVESGGALVKPGGSLKLSCAASGFTFSNYAMSWVRQTPEKRLEWVATISNRGSYTYYPDSVKGRFTISRDNAKNTLYLQMSSLRSEDTALYYCARERPMDYWGQGTSVTVSS VL: DIVMTQSHKFMSTSVGDRVSITCKASQDVGTAVAWYQQKPGQSPKLLIYWASTRHTGVPDRFTGSGSGTDFTLTITNVQSEDLAVYFCHQHSSNPLTFGAGTKLELK |
| – | – | – | – | – | – | – | – | 2.9 nM | VH6/Vκ7-IgG4v2 (antibody, also called VH6/VK7-IgG4v2; VH6/VK7-IgG4v2_HEK) heavy: not shown light: DIQMTQSPSTLSASVGDRVTITCKASQDVGTAVAWYQQKPGKAPKLLIYWASTRHTGVPDRFSGSGSGTDFTLTISSLQAEDFAVYFCHQHSSNPLTFGQGTKLEIKRTVAAPSVFIFPPSDEQLKSGTASVVCLLNNFYPREAKVQWKVDNALQSGNSQESVTEQDSKDSTYSLSSTLTLSKADYEKHKVYACEVTHQGLSSPVTKSFNRGEC |
